Reference: the DeepSol protein solubility set

experiment: soluble on expression in E. coli; label from the status in PepcDB or PDB records

Sequence | soluble on expression in E. coli
STGMRPRGAAFAAGPPGDLHLGTAIGFAGAIWRSRSPAMSTLLDIKSSVLRQVQVCPSFRRRTEQDPGSASADPQEPATGAWKPGDGVEFFAHMRLMLKKGEGRQGLPCLEVPLRSGSPAPPEPVDPSLGLRALAPEEVEMLYEEALYTVLYRAGTMGPDQVDDEEALLSYLQQVFGTSLEEHTEAIERVRKAKAPTYALKVSVMRAKNLLAKDPNGFSDPYCMLGILPASDATREPRAQKEQRFGFRKGSKRGGPLPAKCIQVTEVKSSTLNPVWKEHFLFEIEDVSTDQLHLDIWDHDDDVSLVEACRKLNEVIGLKGMGRYFKQIVKSARANGTAGPTEDHTDDFLGCLNIPVREVPVAGVDRWFKLEPRSSASRVQGHCHLVLKLITTQRDTAMSQRGRSGFLSHLLLLSHLLRLEHSAEEPNSSSWRGELSTPAATILCLHGAQSNLSPLQLAVLHWQVSSRHHQTCTLDYSYLLGLLEDMQAHWEEAPSLPQEQEESLADSLSAFSEFGLQLLRQLRDYFPATNSTAVHRLELLLKCLGKLQLFQPSFEICPFESELNMDIAAALKRGNREWYDRILNDKSPREQPGPQRLPGLVVLADAVYDDLQFCYSVYASLFHSILNVDVFTLTFRQLERLVAEEAWVLTEELSPKMTLEVASGLFELYLTLADLQRFWDSIPGRDSRSLALAGIHAPFLPAVKLWFQVLRDQAKWRLQGAVDMDTLEPVDASSRHSSSAATAGLCLSHIQELWVRLAWPDPAQAQGLGTQLGQDVCEATLFYTELLRKKVDTQPGAAGEAVSEALCVVLNNVELVRKAAGQALKGLAWPEGATGPEGVLPRPLLSCTQALDDDLQREAHTVTAHLTSKMVGDIRKYVQHISLSPDSIQNDEAVAPLMKYLDEKLALLNASLVKGNLSRVLEALWELLLQAILQALGANRDVSADFYSRFHFTLEALVSFFHAEGQGLPLESLRDGSYKRLKEELRLHKCSTRECIEQFYLDKLKQRTLEQNRFGRLSVRCHYEAAEQRLAVEVLHAADLLPLDANGLSDPFVIVELGPPHLFPLVRSQRTQVKTRTLHPVYDELFYFSVPAEACRRRAACVLFTVMDHDWLSTNDFAGEAALGLGGVTGVARPQVGGGARAGQPVTLHLCRPRAQVRSALRRLEGRTSKEAQEFVKKLKELEKCMEADP | soluble
STLKGALSVKFDVKCPADKFFSAFVEDTNRPFEKNGKTEIEAVDLVKKTMTIQMSGSEIQKYFKTLKGSIAVTPIGVGDGSHVVWTFHFEKVHKDIDDPHSIIDESVKYFKKLDEAILNFKE | soluble
SYMERMDKRALISFWESVEHLKNANKNEIPQLVGEIYQNFFVESKEISVEKSLYKEIQQCLVGNKGIEVFYKIQEDVYETLKDRYYPSFIVSDLYEKLLIKEEEKHASQMISNKDEMGPRDEAGEEAVDDGTNQINEQASFAVNKLRELNEKLEYKRQALNSIQNAPKPDKKIVSKLKDEIILIEKERTDLQLHMARTDWWCENLGMWKASITSGEVTEENGEQLPCYFVMVSLQEVGGVETKNWTVPRRLSEFQNLHRKLSECVPSLKKVQLPSLSKLPFKSIDQKFMEKSKNQLNKFLQEETEEDSDLSDYGDDVDGRKDALAEPCFMLIGEIFELRGMFKWVRRTLIALVQVTFGRTINKQIRDTVSWIFSEQMLVYYINIFRDAFWPNGKLAPPTTIRSKEQSQETKQRAQQKLLENIPDMLQSLVGQQNARHGIIKIFNALQETRANKHLLYALMELLLIELCPELRVHLDQLKAGQV | soluble
TAILVTTRDGTRTEIQAEPGLSLMEALRDAGIDELLALCGGCCSCATCHVLVAPAFADRLPALSGDENDLLDSSDHRTPHSRLSCQITINDKLEGLEVEIAPED | soluble
TCPAACHCPLEAPKCAPGVGLVRDGCGCCKVCAKQLNEDCSKTQPCDHTKGLECNFGASSTALKGICRAQSEGRPCEYNSRIYQNGESFQPNCKHQCTCIDGAVGCIPLCPQELSLPNLGCPNPRLVKVTGQCCEEWVCDEDSIKDPMEDQDGLLGKELGFDASEVELTRNNELIAVGKGSSLKRLPVFGMEPRILYNPLQGQKCIVQTTSWSQCSKTCGTGISTRVTNDNPECRLVKETRICEVRPCGQPVYSSLKKGKKCSKTKKSPEPVRFTYAGCLSVKKYRPKYCGSCVDGRCCTPQLTRTVKMRFRCEDGETFSKNVMMIQSCKCNYNCPHANEAAFPFYRLFNDIHKFRD | soluble
TDESRGKARAAGVESAVLLENKSRLLPLAKEAKIALVGPLATSPDILGGWNVYGEEKDGINVETGLREVFETVEVVSTEYTELSEEDKVAVKAAVQNMDVVVLALGEKNEWGGEAGSLATIRLPEAQYQLAKFVQTLGKPVVITLFNGRPLEVKELAESSDALLELWFPGTEAGRVTADLLSGASNPSGKLSMSFPQTTGQIPVYYNHLRTGRPQTPENKGERYVSHYLDIPNEPFYPFGYGKSYSEF | not soluble
TDGQLTKQHVRALAISALAPKPHETLWDIGGGSGSIAIEWLRSTPQTTAVCFEISEERRERILSNAINLGVSDRIAVQQGAPRAFDDVPDNPDVIFIGGGLTAPGVFAAAWKRLPVGGRLVANAVTVESEQMLWALRKQFGGTISSFAISHEHTVGSFITMKPALPVHQWTVVKALTKEL | soluble
TDNTKPNRMPVAPYWTSPEKMEKKLHAVPAAKTVKFKCPSSGTPQPTLRWLKNGKEFKPDHRIGGYKVRYATWSIIMDSVVPSDKGNYTCIVENEYGSINHTYQLDVVERSPHRPILQAGLPANKTVALGSNVEFMCKVYSDPQPHIQWLKHIEVNGSKIGPDNLPYVQILKTAGVNTTDKEMEVLHLRNVSFEDAGEYTCLAGNSIGLSHHSAWLTVLEALEER | soluble
TDPGAEELPARIFVALFDYDPLTMSPNPDAAEEELPFKEGQIIKVYGDKDADGFYRGETCARLGLIPCNMVSEIQADDEEMMDQ | soluble
TESPADSFLKVELELNLKLSNLVFQDPVQYVYNPLVYAWAPHENYVQTYCKSKKEVLFLGMNPGPFGMAQTGVPFGEVNHVRDWLQIEGPVSKPEVEHPKRRIRGFECPQSEVSGARFWSLFKSLCGQPETFFKHCFVHNHCPLIFMNHSGKNLTPTDLPKAQRDTLLEICDEALCQAVRVLGVKLVIGVGRFSEQRARKALMAEGIDVTVKGIMHPSPRNPQANKGWEGIVRGQLLELGVLSLLTG | soluble
TIPKWWKEAVFYQVYPRSFKDTNGDGIGDINGIIEKLDYLKALGIDAIWINPHYDSPNTDNGYDIRDYRKIMKEYGTMEDFDRLISEMKKRNMRLMIDVVINHTSDQNEWFVKSKSSKDNPYRGYYFWKDAKEGQAPNNYPSFFGGSAWQKDEKTNQYYLHYFAKQQPDLNWDNPKVRQDLYAMLRFWLDKGVSGLRFDTVATYSKIPDFPNLTQQQLKNFAAEYTKGPNIHRYVNEMNKEVLSHYDIATAGEIFGVPLDQSIKFFDRRRDELNIAFTFDLIRLDRDSDQRWRRKDWKLSQFRQIIDNVDRTAGEYGWNAFFLDNHDNPRAVSHFGDDRPQWREPSAKALATLTLTQRATPFIYQGSELGMTNYPFKAIDEFDDIEVKGFWHDYVETGKVKADEFLQNVRLTSRDNSRTPFQWDGSKNAGFTSGKPWFKVNPNYQEINAVSQVTQPDSVFNYYRQLIKIRHDIPALTYGTYTDLDPANDSVYAYTRSLGAEKYLVVVNFKEQMMRYKLPDNLSIEKVIIDSNSKNVVKKNDSLLELKPWQSGVYKLNQ | soluble
TLTDTMNDLAVRMAESFQAEEVGFFHIDHFENLTLLPGSTAFFKEAKPSDFYNELKEKLYEGEKGVFIGNGQSVFGKAGYGSLMAAPMIQNDRLLGFAVLLKQELYAFTFEMYKLFQALIHHATLAVTNSMLRDRLEHLVKTDQL | not soluble
TLTIDDGNIEIVGTGVKGKLPTVWLQYGQVNLKASGGNGKYTWRSANPAIASVDASSGQVTLKEKGTTTISVISSDNQTATYTIATPNSLIVPNMSKRVTYNDAVNTCKNFGGKLPSSQNELENVFKAWGAANKYEYYKSSQTIISWVQQTAQDAKSGVASTYDLVKQNPLNNIKASESNAYATCVK | soluble
TNDEETIQQQILALSADKRNFLRDPPAGVQFNFDFDQMYPVALVMLQEDELLSKMRFALVPKLVKEEVFWRNYFYRVSLIKQSAQLT | soluble
TPDFTWKTSLNFSANKNKIVELHEELKEFVYGPTSFSSSYAMKLVKGGSIGDIYGKAFIRDEAGSIVYGTDGDYKGLPLVEGDGNTVKVGNANPDFMLGWNHSFSYKGFSLYFLLDWRYGGEVLSQTQAEMDLYGVSKATAQARDKGYVSLEGQQISDVKGFYKNVVGGRAGVTEYYMYDATNLRLREISLSYSFPRKWVQKTNCLKDLQLSFVARNLCFLYKKAPFDPDLVLSTGNDNQGIEVFGMPTTRSLGFTLTCEF | not soluble
TSSTIFSGVAIYVNGYTDPSAEELRKLMMLHGGQYHVYYSRSKTTHIIATNLPNAKIKELKGEKVIRPEWIVESIKAGRLLSYIPYQLYT | soluble
TTSLRAYRLGEHGQVLEQRALSAGIMQLPTTPRLISGQLCSDGFELAFDQACGDWLDAEPGLPVIACGMVGSAQGWREAAYRETPASVNQLSAALQTVRSQRGVTVHIIPGVLQRSTLPNVMRGEETQVLGVLAGLETQLDNQPLLIGLPGSHSKWVQVTRGRIVHFDTFMTGEVYAALCAHTILGRTMQPAEAFDDQAFDRGLSIALSDTGSAGPLSTIFSTRTLGLTGQLAASAQPDYLSGLLFGHELGAIARLHLHTHEQLPAVILIGSEALCARYSRGLTVCGFPQVTLAEQATERGLWQVAVQAGLIAR | not soluble
TVAEPKAINATQPLLLDAVRGKEVERPPVWLMRQAGRYMKSYQLLCEKYPLFRDRSENVDLVVEISLQPWKVFRPDGVILFSDILTPLSGMNIPFDIIKGKGPVIFDPLRTAADVEKVREFIPEKSVPYVGEALTILRKEVNNQAAVLGFVGAPFTLASYVVEGGSSKNFTKIKRLAFAEPKVLHALLQKFATSMAKYIRYQADSGAQAVQIFDSWATELSPVDFEEFSLPYLKQIVDSVKLTHPNLPLILYASGSGGLLERLPLTGVDVVSLDWTVDMADGRRRLGPNVAIQGNVDPGVLFGSKEFITNRINDTVKKAGKGKHILNLGHGIKVGTPEENFAHFFEIAKGLRY | soluble
TVKSFVMRAGRMTEGQQRGLDLGWPKFGLELSDEVQDFDAIFGRQAPRTFEIGFGMGHSTLEMAAAAPDIDFIGVEVHKPGVGALLNGLLTQGLGNVRVYSCDALEVLRHCVADASLDRLLLFFPDPWHKKRHHKRRIVQPEFAELVRRKLKVGGVLHMATDWEPYAEHMLDVMSAAPGYRNQAEDGRFVPRPQERPVTKFERRGERLGHGVWDLKFER | not soluble
TVNQAKIFAQTTKMLEFAKQLLETDDFSTLREAYYVSKNWGEARFDDQQASNNVIEDLEAALGVLREHLGFIPEEDGSSVVGPLKIIEETPEGELVVDCTKLGTGAYNIPNDVTKLNLETDADFILAIETSGMFARLNAERFWDKHNCILVSLKGVPARATRRFIKRLHEEHDLPVLVFTDGDPYGYLNIYRTLKVGSGKAIHLADKLSIPAARLIGVTPQDIIDYDLPTHPLKEQDIKRIKDGLKNDDFVRSFPEWQKALKQMLDMGVRAEQQSLAKYGLKYVVNTYLPEKIKDESTWLP | soluble
TYDGKVESVVLGFATEVPEPWVTEKLSITEEELVYKIIRLRIIEDVPSIIEYTWMPVALIPNLTMKELKVSIYQYISEQLHQKIQSARVSISGIRPSPLEKKYLNLTDNDFLMRAEQIAYLGNGHIFEYSIANHIPSEFTFETVLIAEK | not soluble
VAAALGVKPPETATTPEIVVGRPPELCKGCGHRDMFDAINIAIKENADHHVFSDIGCYTLGALPPYNAIHTCVDMGAAITMAKGAADAGLRPAVCVIGDSTFAHSGMTGLLDAVNDRTPVTVIIADNNTTAMTGGQCSSASGSKLVNICIGLGVEEAHIRTIVPLRQHLHENVSVLRDEFAYNGVSVVIAQRECIETAAKKKRRAAASAQ | not soluble
